The target in assay [1] is T1, human MSLN-R3 protein (Met487-Ser606 of NCBI AAH09272.1) expressed on HEK293T-hMSLN-R3 cells (human, UniProt Q13421 487-606).
T1 construct: also called Region3
Briefly: FACS on HEK293T-hMSLN-R3 cells.
Procedure: (§1) The desired cells were expanded to the logarithmic growth phase in a T-75 cell culture flask. […] After the cells from the previous step were subjected to cell counting, the cell pellet was resuspended to 2×10⁶ cells/mL in a blocking buffer of [PBS+2% (w/w) BSA] and added into a 96-well FACS reaction plate at 50 μL/well. A chimeric antibody (a sample to be tested) was added at 50 μL/well, and the plate was incubated on ice for 2 h. […] After the plate was centrifuged and washed 5 times with a PBST buffer, assay and analysis were performed by FACS (FACS CantoII, purchased from BD). Data analysis was performed by software (Flowjo) to obtain the mean fluorescence intensity (MFI) of the cells.

Assay [2] concerns the target T2, human MSLN protein endogenously expressed on OVCAR3 tumor cells (human, UniProt Q13421 296-598).
T2 construct: whole, on cells; Endogenous target on OVCAR3 cells; kept apart from the recombinant full-length construct; also called mesothelin
Briefly: FACS on OVCAR3 cells.
T2 sequence (Q13421 other isoform, or with tags, fused parts or gaps): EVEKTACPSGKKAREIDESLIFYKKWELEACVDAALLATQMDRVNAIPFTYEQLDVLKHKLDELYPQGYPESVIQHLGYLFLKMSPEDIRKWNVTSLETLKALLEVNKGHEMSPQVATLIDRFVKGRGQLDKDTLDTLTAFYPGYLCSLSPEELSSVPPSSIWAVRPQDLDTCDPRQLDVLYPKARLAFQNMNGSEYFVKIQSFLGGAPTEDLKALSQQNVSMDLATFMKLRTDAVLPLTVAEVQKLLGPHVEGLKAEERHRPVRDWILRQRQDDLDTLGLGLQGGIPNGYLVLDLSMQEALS
Procedure: as §1

The target in assay [3] is T3, human MSLN full-length protein (NCBI: AAH09272.1) expressed on HEK293T-hMSLN-B8 cells (human, UniProt Q13421 296-598).
T3 construct: Whole encoded precursor
Briefly: FACS on HEK293T-hMSLN-B8 cells.
Procedure: as §1

Assay [4] deals with T4, human MSLN-FL-his protein (human, UniProt Q13421 296-580).
T4 construct: made in HEK293E cells, purified on nickel column; also called hMSLN-FL-his; human MSLN full-length protein; not shown: His tag
Briefly: competitive ELISA; row F8-5.15. For orientation: In an ELISA, binding on a coated surface is turned into a signal by an enzyme label.

For assay [5], the target named is T4, human MSLN-FL-his protein. Put plainly: competitive ELISA; row F8-27.1.
Procedure: (§2) In order to identify antigen-binding sites of antibodies, MSLN chimeric antibodies were grouped using competitive ELISA.
(§3) The chimeric antibodies were diluted to 2 μg/mL with PBS and allowed to coat 96-well high-adsorption ELISA plates at 50 μL/well. After the plates were coated at 4° C. overnight, 250 μL of a blocking buffer (PBS containing 2% (w/w) BSA) was added for two hours of blocking at room temperature. 40 μg/mL of the antibodies to be tested were added, and then the human MSLN-FL-His protein with an EC₈₀ concentration corresponding to each of the antibodies to be tested was added for incubation for 2 h. The plates were washed 5 times with PBS, an HRP-labeled anti-His secondary antibody (purchased from Genescript, Cat. No. A00612) was then added for incubation for 1 h, and the plates were washed 5 times again. A TMB substrate was added at 50 μL/well, and after 10 minutes of incubation at room temperature, a stop solution (1.0 M HCl) was added at 50 μL/well. OD₄₅₀ nm values were read using an ELISA plate reader (Insight, purchased from PerkinElmer), and the competition rate between the antibodies was calculated according to the OD₄₅₀ nm values using a formula.
Assay [6] concerns the target T5, human MSLN-R3 protein expressed on HEK293T cells (HEK293T-hMSLN-R3) (human, UniProt Q13421 487-606).
T5 construct: C-terminal limit uncertain
Put plainly: FACS on HEK293T-hMSLN-R3 cells.
Procedure: as §1

Assay [7] deals with T4, human MSLN-FL-his protein. Put plainly: SPR (Biacore), antibody captured on Protein A chip.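 Note: flow cell at 25 °C, antigen injected for 240 s at five concentrations from 200 nM downward, dissociation followed up to 600 s, double-referenced, fitted with Langmuir 1:1 model.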 Background: In SPR one partner is held on a chip, and binding of the other changes the refractive index at the surface.
The target of assay [8] is T4, human MSLN-FL-his protein. Put plainly: competitive ELISA; row F8-4.5.
Procedure: as §2, §3
The target of assay [9] is T4, human MSLN-FL-his protein. Briefly: competitive ELISA; row F8-18.9.
Procedure: as §2, §3
The target in assay [10] is T4, human MSLN-FL-his protein. Briefly: competitive ELISA; row F8-19.21.
Procedure: as §2, §3
In assay [11] the target is T4, human MSLN-FL-his protein. Put plainly: competitive ELISA; row F8-15.19.
Procedure: as §2, §3
In assay [12] the target is T4, human MSLN-FL-his protein. Put plainly: competitive ELISA; row F8-13.8.
Procedure: as §2, §3
Assay [13] deals with T4, human MSLN-FL-his protein. Put plainly: competitive ELISA; row F8-31.22.
Procedure: as §2, §3
The target in assay [14] is T4, human MSLN-FL-his protein. Put plainly: competitive ELISA; row F8-12.13.
Procedure: as §2, §3
Assay [15] concerns the target T4, human MSLN-FL-his protein. Put plainly: competitive ELISA; row Tab021.
Procedure: as §2, §3
Assay [16] has as its target T4, human MSLN-FL-his protein. Put plainly: competitive ELISA; row Tab142.
Procedure: as §2, §3
For assay [17], the target named is T6, human MSLN protein endogenously expressed on OVCAR3 tumor cells (human, UniProt Q13421 296-598).
T6 construct: whole, on cells; endogenous expression on a tumor cell line; also called human mesothelin
Briefly: FACS on OVCAR3 cells.
Procedure: as §1

For assay [18], the target named is T4, human MSLN-FL-his protein. Briefly: competitive ELISA; row F8-7.5.
Procedure: as §2, §3

Where two headings read alike, the source gives them in different places.

From US20250250357A1 (NANJING ZAIMING PHARMACEUTICAL, published 2025) come the findings set out here.
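Throughout, for result: chimeric antibodies incubated with cells on ice for 2 h, binding read by flow cytometry as mean fluorescence intensity.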

T4 sequence (Q13421 other isoform, or with tags, fused parts or gaps): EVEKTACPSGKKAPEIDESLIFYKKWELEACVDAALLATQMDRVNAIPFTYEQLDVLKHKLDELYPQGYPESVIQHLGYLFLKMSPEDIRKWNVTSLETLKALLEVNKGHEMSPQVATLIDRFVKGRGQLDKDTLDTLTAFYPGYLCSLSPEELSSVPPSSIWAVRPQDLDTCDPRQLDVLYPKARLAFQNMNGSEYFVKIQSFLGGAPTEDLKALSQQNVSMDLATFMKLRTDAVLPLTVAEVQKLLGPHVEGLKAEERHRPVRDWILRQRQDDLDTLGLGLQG
T1 sequence (Q13421 495-614): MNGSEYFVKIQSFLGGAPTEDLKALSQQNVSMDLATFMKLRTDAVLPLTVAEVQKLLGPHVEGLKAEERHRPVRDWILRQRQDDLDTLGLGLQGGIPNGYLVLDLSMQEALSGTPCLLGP
T5 sequence (Q13421 495-614): as above
T3 sequence (Q13421 other isoform, or with tags, fused parts or gaps limits assumed): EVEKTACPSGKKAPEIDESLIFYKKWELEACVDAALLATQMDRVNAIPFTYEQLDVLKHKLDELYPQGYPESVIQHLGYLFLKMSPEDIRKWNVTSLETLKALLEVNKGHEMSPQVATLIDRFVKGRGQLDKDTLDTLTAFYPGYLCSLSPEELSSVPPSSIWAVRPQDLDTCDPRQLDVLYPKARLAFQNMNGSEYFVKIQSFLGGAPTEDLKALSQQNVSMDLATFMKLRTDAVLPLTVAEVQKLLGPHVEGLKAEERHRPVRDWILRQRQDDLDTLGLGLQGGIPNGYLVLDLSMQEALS

B1: S009-F1.59.1 (antibody, human IgG1, kappa, V domains shown)
VH: EVKLEGSGGGLVQPGGSMMLSCVATGFTFSSYWMNWVRQSPDRGLEWVAEIRLKSNGFAAFYAESVKGRFTISRDDSKSSVYLQMNNLRTEDTGIYYCTYFVHWGQGILVTVSE
VL: DIVLTQSPTSLAVSLGQRATISCRTSESVEYFGTILIQWYQQKPGQPPKLLIFGASNVESGVPARFSGSGSGTDFSLNIHPVEEEDIAMYFCQQNRKVPYTFGGGTTLELKR
notes: human-murine chimeric antibody, human IgG1/kappa constant regions
The term EC50 denotes the concentration that produces a half-maximal response. Low values mean a more potent agent, high ones a less potent agent. In assay [1], B1 had an EC50 of 0.31 nM. Besides, the “Maximum mean fluorescence intensity” value in assay [1] was 7070; in [2], 445; in assay [3] it was 32800.

B2: S009-F1.57.1 (antibody, human IgG1, kappa, V domains shown)
VH: EAQLQQSGAVFVKPGASVKLSCTASGFSSKDIFLHWVKQRPEQGLEWIGRIDPASDNTIYDPKFQDRATITSDRSSNTAYLQFSSLTSEDTAVYFCLYFDFWGQGTTLTVSS
VL: DIVMTQATPSISVTPGESVSISCRSSESLLHSNGNTYLYWFLQRPGQSPQLLIYRMSNLASGVPDRFSVSGSGTAFTLRISRVEAEDVGVYYCMQHLEYPLTFGAGTKLELKR
notes: as for B1
B2 yielded an EC50 in [1] of 3.9 nM. For the same molecule, the results for the “Maximum mean fluorescence intensity” value in assay [1], in [2] and in assay [3] were 6660, 948 and 8750, respectively.

B3: S009-F1.62.9 (antibody, human IgG1, kappa, V domains shown)
VH: EVQLQQSGADLVKPGASVKLSCTVFGLNFKDTFMHWVRQRPEQGLEWIGRIDPANDNSIYGPKFQDKATITADTSSNTAYLHLSSLTSEDTAVYYCLYFDNWGHGTTLTVSS
VL: DIVMTQAASSEPVTPGESVSISCRSDKSLLHSNGHNYLYWFLQRPGQSPHLLIYRMSNLASGVPDRFSGSGSGTAFTLRISRVEAEDVGVYYCMQHLEYPLTFGAGTKLELKR
notes: as for B1
Take B3: in assay [1], a half-maximal response (EC50) required 0.95 nM. The “Maximum mean fluorescence intensity” value in [1] is 6930; in assay [2], 425; in [3], 9550.

B4: S009-F8-18.9 (antibody, human IgG1, kappa, V domains shown)
VH: EFQLQQSGPELVKPGASVKISCKASGYSFTDYNMNWVKQSNGKSLEWIGIINPNYGTTSYNQKFKGRATLTVDQSSSTAYVQLNSLTSEDSAVYYCARGGYDNEAMDYWGQGTSVTVSS
VL: QIVLTQSPAIMSASPGEKVTMTCSASSSVSYMHWYQQKSGTSPKRWIYDTSKLASGVPARFSGSGSGTSYSLTISSMEAEDAATYYCQQWSSNPPTFGAGTKLELKR
notes: as for B1
What is called Kd is the concentration at which binding is half-saturated. Read a low Kd as tighter binding. Usually koff stands for the first-order rate constant of dissociation. Usually kon stands for the rate constant with which the complex forms. A high value points to fast association. For B4, the competition rate in assay [4] was determined as 99.7%; in [5], 96.8%; in [8], 83.3%; in assay [9], 6.6%; in assay [10], 91.3%; in [11], 99.5%. In addition, the competition rate in assay [12] was 77.5%; in assay [13], 98%; in assay [14], 97.2%; in assay [15] it was 2.63%; in assay [16] it was 85.5%; in assay [18], -116%. Further, the “Maximum mean fluorescence intensity” value in assay [6] is 131; in assay [17] it was 10800. The binding result in assay [6] is “no binding”. Binding in assay [7] was characterised by a dissociation constant (Kd) of 3.17 nM. For the same molecule, in [7], the koff came out at 0.000876 s⁻¹. This molecule displayed a kon in assay [7] of 276000 M⁻¹ s⁻¹. Also, a half-maximal response in assay [17] (EC50) required 24.1 nM.

B5: S009-F8-27.1 (antibody, human IgG1, kappa, V domains shown)
VH: EVQLVESGGGLVKPGGSLKLSCAASGFTFSSYAMSWVRQTPEKRLEWVATISDGGNYTYYPDNVKGRFTISRDNAKNNLYLQMSHLKSEDTAMYYCAGDRGYPYAMDSWGQGTSVTVSS
VL: NIMMTQSPSSLAVSAGEKVTMSCKSSQSVLYSSNQKNYLAWYQQKPGQSPKLLIYWASTRESGVPDRFTGSGSGTDFTLTISNVHAEDLAVYYCHQYLSSLTFGAGTKLELKR
notes: as for B1
Consider B5, for which the competition rate in assay [4] was 99.8%; in assay [5], 95.3%; in assay [8], 92%; in assay [9], -2.77%; in assay [10], 90.2%; in [11] it was 99.2%. In addition, the competition rate was 74.6% in assay [12]; -13.1% in assay [13]; 98.7% in assay [14]; 12.2% in assay [15]; 86.2% in [16]; -9.43% in assay [18]. Besides, the results for the “Maximum mean fluorescence intensity” value in assay [6] and in assay [17] were 120 and 7620, respectively. In addition, the binding result in assay [6] was “no binding”. The molecule also had a Kd in [7] of 1.95 nM. In addition, in assay [7], the koff amounted to 0.000234 s⁻¹. This molecule also registered a kon in assay [7] of 120000 M⁻¹ s⁻¹. In assay [17], the response was half-maximal at 77.9 nM (EC50).

B6: S009-F8-7.5 (antibody, human IgG1, kappa, V domains shown)
VH: DVQLQESGPGLVKPSQSLSLTCSVTGYSITSGYYWNWIRQFPGNKLEWMAYIRYDGSNNYNPSLKNRISIIRDTSKNQFFLRLNSVTTEDTATYYCAKSYYGMDDWGQGISVTVSS
VL: DIQMTQSPASLSASVGETVTITCRTSGDIHNYLAWYQQKQGKSPQLLVYKAKTLENGVPSRFTGSGSGTQFSLKIDSLQPEDFGTYYCQHFWTTPYTFGGGTKLEIKR
notes: as for B1
As to B6, the competition rate is 83.3% in assay [4]; 3.35% in assay [5]; 3.24% in [8]; 11.2% in assay [9]; 14.7% in assay [10]; -15.7% in [11]. In addition, the competition rate was 3.15% in assay [12]; -71.5% in [13]; -23.2% in assay [14]; 14.2% in assay [15]; 2.16% in assay [16]; 85.8% in [18]. Moreover, the figures for the “Maximum mean fluorescence intensity” value in assay [6] and in [17] were 279 and 8990, respectively. In addition, the binding result in assay [6] is on record as “no binding”. Also, the Kd in assay [7] was 92.6 nM. In assay [7], the koff turned out to be 0.0215 s⁻¹. In addition, the kon in assay [7] was found to be 232000 M⁻¹ s⁻¹. This molecule registered an EC50 in assay [17] of 0.71 nM.

B7: S009-F8-4.5 (antibody, human IgG1, kappa, V domains shown)
VH: QVQLQQPGAELVKPGASVKLSCKASGYTFTIYWMHWVKQRPGQGLEWIGMIHPNSGNTNYNEKFKSKATLTVDKSSSTAYMQLSSLTSEDSAVYYCSLIHWYFDVWGTGTTVTVSS
VL: QIVLTQSPAIMSASPGEKVTMTCSASSSVSYMYWYQQKPGSSPRLLIYDTSNLASGVPVRFSGSGSGTSYSLTISRMEAEDAATYYCQQWSSYPLTFGAGTKLELKR
notes: as for B1
As to B7, the competition rate in assay [4] came out at 100%; in assay [5], 99.8%; in [8] it was 97.5%; in [9], 8.32%; in [10] it was 98.9%; in assay [11], 100%. The competition rate in [12] was 95.8%; in assay [13] it was 89.7%; in [14], 98.9%; in [15] it was 9.76%; in [16] it was 97.8%; in assay [18], 23.6%. Further, the entries for the “Maximum mean fluorescence intensity” value in [6] and in assay [17] were 192 and 14000, respectively. Further, in [6], the binding result is “no binding”. This molecule yielded a Kd in [7] of 0.824 nM. In assay [7], this molecule gave a dissociation rate constant (koff) of 0.000599 s⁻¹. Also, in [7], the kon worked out at 727000 M⁻¹ s⁻¹. For the same molecule, the EC50 in [17] stood at 4.93 nM.
